# Data published in article PMC5385555, “Molecular basis for the behavioral effects of the odorant degrading enzyme Esterase 6 in Drosophila” (Scientific Reports, 2017).
# B1: EST6 (wildtype EST6, EST6-WT) (Drosophila melanogaster) (protein)
# chain: SDTDDPLLVQLPQGKLRGRDNGSYYSYESIPYAEPPTGDLRFEAPEPYKQKWSDIFDATKTPVACLQWDQFTPGANKLVGEEDCLTVSVYKPKNSKRNSFPVVAHIHGGAFMFGAAWQNGHENVMREGKFILVKISYRLGPLGFVSTGDRDLPGNYGLKDQRLALKWIKQNIASFGGEPQNVLLVGHSAGGASVHLQMLREDFGQLARAAFSFSGNALDPWVIQKGARGRAFELGRNVGCESAEDSTSLKKCLKSKPASELVTAVRKFLIFSYVPFAPFSPVLEPSDAPDAIITQDPRDVIKSGKFGQVPWAVSYVTEDGGYNAALLLKERKSGIVIDDLNERWLELAPYLLFYRDTKTKKDMDDYSRKIKQEYIGNQRFDIESYSELQRLFTDILFKNSTQESLDLHRKYGKSPAYAYVYDNPAEKGIAQVLANRTDYDFGTVHGDDYFLIFENFVRDVEMRPDEQIISRNFINMLADFASSDNGSLKYGECDFKDNVGSEKFQLLAIYIDGCQNRQHVEFP
# notes: wildtype, baculovirus expressed, semi-purified; N-terminal signal peptide of 63 bp (21 residues) in the gene
# Columns and labels:
# [1] = substrate: CC(=O)Oc1ccc([N+](=O)[O-])cc1; assay: UV/vis substrate-loss assay; format: biochemical, Drosophila melanogaster; conditions: Tris-HCl pH 8.0, 25 °C, 5% ethanol (Table S1), Fig. S1 without ethanol
# [2] = substrate: CC(=O)Oc1ccc2ccccc2c1; assay: UV/vis substrate-loss assay; format: biochemical, Drosophila melanogaster; conditions: Tris-HCl pH 8.0, 25 °C, 5% ethanol
protein,measurement,setting,value
B1,Km,[1],269 ± 18 µM
same,kcat,[1],105 ± 2 s-1 (head prints M.s-1)
same,Km,[2],121 ± 6 µM
same,kcat,[2],135 ± 2 s-1 (head prints M.s-1)
